Article PMC5698383 (Applied Biochemistry and Biotechnology, 2017)
Like-named read-outs stand apart in the source and are kept apart here.

Tests used:
[1] = target: Fructose 1,6-bisphosphatase II from Francisella tularensis (glpX gene product) (Francisella tularensis); experiment: SEC
[2] = target: Fructose 1,6-bisphosphatase II from Francisella tularensis (glpX gene product) (Francisella tularensis); experiment: SEC; remark: listed apart in the source

Fructose 1,6-bisphosphatase II from Francisella tularensis (glpX gene product) (enzyme)
stoichiometry N [1]: 2
stoichiometry N [2]: 4
